Source: PMC9482650, “Quantitative fragmentomics allow affinity mapping of interactomes” (Nature Communications, 2022)

T1: NHERF3_3, Q5T2W1
T1 sequence (Q5T2W1 238-333, limits assumed, looked up): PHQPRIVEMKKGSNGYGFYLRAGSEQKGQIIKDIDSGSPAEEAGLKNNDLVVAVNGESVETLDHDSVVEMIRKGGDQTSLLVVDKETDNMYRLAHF

T2: LNX2_2, Q8N448
T2 sequence (Q8N448 334-432, limits assumed, looked up): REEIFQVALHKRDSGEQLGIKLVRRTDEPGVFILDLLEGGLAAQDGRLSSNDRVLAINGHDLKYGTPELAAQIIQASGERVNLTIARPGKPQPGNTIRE

T3: GRIP1_5, Q9Y3R0
T3 sequence (Q9Y3R0 568-668, limits assumed, looked up): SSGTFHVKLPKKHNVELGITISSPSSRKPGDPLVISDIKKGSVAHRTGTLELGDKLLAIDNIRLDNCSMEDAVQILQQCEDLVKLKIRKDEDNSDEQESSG

T4: SHANK1, Q9Y566
T4 sequence (Q9Y566 658-767, limits assumed, looked up): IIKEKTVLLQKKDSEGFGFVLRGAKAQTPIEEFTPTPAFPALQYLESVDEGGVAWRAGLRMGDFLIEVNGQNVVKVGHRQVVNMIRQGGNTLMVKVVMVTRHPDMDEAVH

T5: DLG3_3, Q92796
T5 sequence (Q92796 374-475, limits assumed, looked up): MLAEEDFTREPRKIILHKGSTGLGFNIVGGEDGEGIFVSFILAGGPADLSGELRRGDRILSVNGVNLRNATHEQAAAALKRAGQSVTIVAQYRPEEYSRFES

T6: TJP3_3, O95049
T6 sequence (O95049 375-456, limits assumed, looked up): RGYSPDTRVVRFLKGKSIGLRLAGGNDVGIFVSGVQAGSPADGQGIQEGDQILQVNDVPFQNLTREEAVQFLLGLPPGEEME

T7: MPP2, Q14168
T7 sequence (Q14168 180-250, limits assumed, looked up): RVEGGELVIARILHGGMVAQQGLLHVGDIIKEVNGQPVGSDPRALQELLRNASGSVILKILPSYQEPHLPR

T8: NHERF3_1, Q5T2W1
T8 sequence (Q5T2W1 4-100, limits assumed, looked up): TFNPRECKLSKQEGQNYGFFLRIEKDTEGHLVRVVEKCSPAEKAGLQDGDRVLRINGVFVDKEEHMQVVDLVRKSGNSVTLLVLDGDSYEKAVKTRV

T9: TIAM2, Q8IVF5
T9 sequence (Q8IVF5 885-986, limits assumed, looked up): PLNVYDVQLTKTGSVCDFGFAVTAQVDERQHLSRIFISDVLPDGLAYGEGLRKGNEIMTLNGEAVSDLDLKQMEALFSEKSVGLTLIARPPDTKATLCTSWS

T10: PCLO, Q9Y6V0
T10 sequence (Q9Y6V0 4491-4600, limits assumed, looked up): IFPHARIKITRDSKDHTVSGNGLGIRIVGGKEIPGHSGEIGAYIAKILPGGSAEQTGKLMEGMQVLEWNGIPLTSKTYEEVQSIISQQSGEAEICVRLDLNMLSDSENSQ

T11: DFNB31_2, Q9P202
T11 sequence (Q9P202 274-371, limits assumed, looked up): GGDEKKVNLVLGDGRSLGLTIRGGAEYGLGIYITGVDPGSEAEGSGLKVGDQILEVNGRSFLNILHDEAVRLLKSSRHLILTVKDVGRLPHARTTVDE


Legend:
Experiment in all cases: holdup assay
Design in all cases: key: below the threshold = too weak to quantify, mostly under pKd 3.1 to 4
Conditions in all cases: plain residues with an end cap or a label only (N-terminal biotin on a linker: ado-ado)
NHERF4_1, Q86UT5-2 = target: NHERF4_1, Q86UT5-2
Inadl_8, Q8NI35 = target: Inadl_8, Q8NI35
FRMPD2_2, Q68DX3 = target: FRMPD2_2, Q68DX3
NHERF3_3, Q5T2W1 = target: T1, NHERF3_3, Q5T2W1
LNX2_2, Q8N448 = target: T2, LNX2_2, Q8N448
PICK1, Q9NRD5 = target: PICK1, Q9NRD5
MAGI2_6, Q86UL8 = target: MAGI2_6, Q86UL8
GRIP1_5, Q9Y3R0 = target: T3, GRIP1_5, Q9Y3R0
DLG4_1, P78352 = target: DLG4_1, P78352
SHANK1, Q9Y566 = target: T4, SHANK1, Q9Y566
IL16_1, Q14005 = target: IL16_1, Q14005
DLG3_3, Q92796 = target: T5, DLG3_3, Q92796
GORASP1, Q9BQQ3 = target: GORASP1, Q9BQQ3
TJP3_3, O95049 = target: T6, TJP3_3, O95049
MPP2, Q14168 = target: T7, MPP2, Q14168
Inadl_6, Q8NI35 = target: Inadl_6, Q8NI35
NOS1, P29475 = target: NOS1, P29475
NHERF3_1, Q5T2W1 = target: T8, NHERF3_1, Q5T2W1
TIAM2, Q8IVF5 = target: T9, TIAM2, Q8IVF5
PTPN3, P26045 = target: PTPN3, P26045
PCLO, Q9Y6V0 = target: T10, PCLO, Q9Y6V0
DLG4_3, P78352 = target: DLG4_3, P78352
DFNB31_2, Q9P202 = target: T11, DFNB31_2, Q9P202
GRID2IP_1, A4D2P6 = target: GRID2IP_1, A4D2P6
DLG1_3, Q12959 = target: DLG1_3, Q12959
TJP1_3, Q07157 = target: TJP1_3, Q07157
MAGI2_2, Q86UL8 = target: MAGI2_2, Q86UL8
Sequence of MAGI2_2, Q86UL8 (Q86UL8 410-522): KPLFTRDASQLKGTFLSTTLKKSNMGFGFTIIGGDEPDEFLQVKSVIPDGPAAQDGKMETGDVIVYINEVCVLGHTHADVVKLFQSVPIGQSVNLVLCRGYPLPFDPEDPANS

Sequence of DLG4_3, P78352 (P78352 306-403): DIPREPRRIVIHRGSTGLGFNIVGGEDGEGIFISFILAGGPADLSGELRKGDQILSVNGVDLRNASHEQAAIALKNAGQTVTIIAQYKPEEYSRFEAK
Sequence of DLG4_1, P78352 (P78352 62-152): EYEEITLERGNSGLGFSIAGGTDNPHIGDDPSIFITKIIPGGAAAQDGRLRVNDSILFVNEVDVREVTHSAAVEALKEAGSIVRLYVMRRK
Sequence of FRMPD2_2, Q68DX3 (Q68DX3 944-1038): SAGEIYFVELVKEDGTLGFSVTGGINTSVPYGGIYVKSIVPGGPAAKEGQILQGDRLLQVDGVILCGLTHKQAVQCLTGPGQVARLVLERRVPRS
Sequence of GRID2IP_1, A4D2P6 (A4D2P6 1-87): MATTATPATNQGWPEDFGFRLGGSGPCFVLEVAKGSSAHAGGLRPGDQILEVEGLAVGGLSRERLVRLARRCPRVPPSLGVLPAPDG
Sequence of NHERF4_1, Q86UT5-2 (Q86UT5 other isoform, or with tags, fused parts or gaps): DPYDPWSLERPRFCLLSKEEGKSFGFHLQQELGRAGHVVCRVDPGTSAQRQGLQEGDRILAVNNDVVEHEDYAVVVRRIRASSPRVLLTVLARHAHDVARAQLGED
Sequence of Inadl_8, Q8NI35 (Q8NI35 1425-1530): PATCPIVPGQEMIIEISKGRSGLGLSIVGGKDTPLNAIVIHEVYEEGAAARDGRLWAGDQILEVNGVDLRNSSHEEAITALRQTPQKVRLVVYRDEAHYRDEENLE
Sequence of MAGI2_6, Q86UL8 (Q86UL8 1141-1229): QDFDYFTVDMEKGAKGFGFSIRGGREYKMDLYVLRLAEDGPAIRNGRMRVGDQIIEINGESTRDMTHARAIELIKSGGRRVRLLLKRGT
Sequence of Inadl_6, Q8NI35 (Q8NI35 1058-1167): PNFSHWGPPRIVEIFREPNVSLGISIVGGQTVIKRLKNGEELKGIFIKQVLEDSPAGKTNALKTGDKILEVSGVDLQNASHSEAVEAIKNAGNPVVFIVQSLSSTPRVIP
Sequence of TJP1_3, Q07157 (Q07157 416-512): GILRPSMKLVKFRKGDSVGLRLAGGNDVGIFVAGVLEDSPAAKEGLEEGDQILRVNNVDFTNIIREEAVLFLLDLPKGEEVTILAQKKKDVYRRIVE
Sequence of PTPN3, P26045 (P26045 505-587): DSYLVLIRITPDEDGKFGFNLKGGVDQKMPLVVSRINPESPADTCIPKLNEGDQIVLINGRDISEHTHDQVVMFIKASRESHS
Sequence of IL16_1, Q14005 (Q14005 210-306): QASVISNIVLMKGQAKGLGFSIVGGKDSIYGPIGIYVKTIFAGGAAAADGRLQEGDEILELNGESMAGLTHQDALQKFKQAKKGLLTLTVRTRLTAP
Sequence of GORASP1, Q9BQQ3 (Q9BQQ3 1-208): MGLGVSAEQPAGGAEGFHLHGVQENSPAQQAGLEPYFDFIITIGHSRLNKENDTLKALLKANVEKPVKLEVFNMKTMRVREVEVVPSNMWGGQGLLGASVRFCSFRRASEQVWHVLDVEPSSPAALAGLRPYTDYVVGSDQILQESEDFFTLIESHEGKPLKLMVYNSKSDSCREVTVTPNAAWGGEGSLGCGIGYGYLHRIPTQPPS
Sequence of NOS1, P29475 (P29475 9-101): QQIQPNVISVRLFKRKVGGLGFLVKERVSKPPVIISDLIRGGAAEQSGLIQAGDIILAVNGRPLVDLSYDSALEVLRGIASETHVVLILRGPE
Sequence of PICK1, Q9NRD5 (Q9NRD5 17-115): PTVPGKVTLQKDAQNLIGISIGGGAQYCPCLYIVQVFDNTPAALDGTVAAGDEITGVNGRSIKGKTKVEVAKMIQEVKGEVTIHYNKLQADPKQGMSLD
Sequence of DLG1_3, Q12959 (Q12959 457-571): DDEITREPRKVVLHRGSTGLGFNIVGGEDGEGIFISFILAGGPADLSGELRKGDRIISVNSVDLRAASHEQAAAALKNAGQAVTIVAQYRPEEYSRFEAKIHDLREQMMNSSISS

| Binder | pKd (NHERF4_1, Q86UT5-2) | pKd (Inadl_8, Q8NI35) | pKd (FRMPD2_2, Q68DX3) | pKd (NHERF3_3, Q5T2W1) | pKd (LNX2_2, Q8N448) | pKd (PICK1, Q9NRD5) | pKd (MAGI2_6, Q86UL8) | pKd (GRIP1_5, Q9Y3R0) | pKd (DLG4_1, P78352) | pKd (SHANK1, Q9Y566) | pKd (IL16_1, Q14005) | pKd (DLG3_3, Q92796) | pKd (GORASP1, Q9BQQ3) | pKd (TJP3_3, O95049) | pKd (MPP2, Q14168) | pKd (Inadl_6, Q8NI35) | pKd (NOS1, P29475) | pKd (NHERF3_1, Q5T2W1) | pKd (TIAM2, Q8IVF5) | pKd (PTPN3, P26045) | also measured |
| --- | --- | --- | --- | --- | --- | --- | --- | --- | --- | --- | --- | --- | --- | --- | --- | --- | --- | --- | --- | --- | --- |
| LPHPHSTTRV [NLGN2, Q8NFZ4] | below the threshold | 4.39 | 3.59 | below the threshold | 3.51 | 4.24 | below the threshold | below the threshold | below the threshold | 4.81 | below the threshold | 3.86 | 3.58 | below the threshold | below the threshold | below the threshold | 3.63 | 3.9 | below the threshold | below the threshold | pKd (PCLO, Q9Y6V0): below the threshold; pKd (DLG4_3, P78352): 3.82; pKd (DFNB31_2, Q9P202): below the threshold; pKd (GRID2IP_1, A4D2P6): below the threshold; pKd (DLG1_3, Q12959): 4.13; pKd (TJP1_3, Q07157): below the threshold; pKd (MAGI2_2, Q86UL8): 4.93 |
| PAPSSGKDYV [CLDN1, O95832] | 3.62 | 3.92 | below the threshold | below the threshold | 4.07 | below the threshold | below the threshold | below the threshold | 3.6 | below the threshold | below the threshold | below the threshold | below the threshold | 3.55 | below the threshold | below the threshold | 4.06 | 4.08 | below the threshold | below the threshold | pKd (PCLO, Q9Y6V0): below the threshold; pKd (DLG4_3, P78352): below the threshold; pKd (DFNB31_2, Q9P202): below the threshold; pKd (GRID2IP_1, A4D2P6): below the threshold; pKd (DLG1_3, Q12959): below the threshold; pKd (TJP1_3, Q07157): below the threshold; pKd (MAGI2_2, Q86UL8): below the threshold |
| QGLAERISVL [PRKD2, Q9BZL6] | 4.27 | 3.8 | below the threshold | below the threshold | below the threshold | 4.17 | 3.98 | below the threshold | below the threshold | 4.23 | 4.16 | below the threshold | 4.08 | below the threshold | below the threshold | 4.02 | 3.88 | 4.28 | below the threshold | 4.72 | pKd (PCLO, Q9Y6V0): below the threshold; pKd (DLG4_3, P78352): below the threshold; pKd (DFNB31_2, Q9P202): below the threshold; pKd (GRID2IP_1, A4D2P6): below the threshold; pKd (DLG1_3, Q12959): below the threshold; pKd (TJP1_3, Q07157): below the threshold; pKd (MAGI2_2, Q86UL8): below the threshold |
| SAKVRTVTSV [RASL11B, Q9BPW5] | 3.77 | 4.43 | 3.97 | below the threshold | 4.9 | below the threshold | 3.85 | below the threshold | 4.65 | below the threshold | below the threshold | 4.89 | 3.76 | below the threshold | below the threshold | below the threshold | 3.9 | below the threshold | below the threshold | 4.6 | pKd (PCLO, Q9Y6V0): below the threshold; pKd (DLG4_3, P78352): 4.93; pKd (DFNB31_2, Q9P202): below the threshold; pKd (GRID2IP_1, A4D2P6): below the threshold; pKd (DLG1_3, Q12959): 4.54; pKd (TJP1_3, Q07157): below the threshold; pKd (MAGI2_2, Q86UL8): 5.92 |

Now from value to binder, other results behind:

| pKd (NHERF4_1, Q86UT5-2) | pKd (Inadl_8, Q8NI35) | pKd (FRMPD2_2, Q68DX3) | pKd (NHERF3_3, Q5T2W1) | pKd (LNX2_2, Q8N448) | pKd (PICK1, Q9NRD5) | pKd (MAGI2_6, Q86UL8) | pKd (GRIP1_5, Q9Y3R0) | pKd (DLG4_1, P78352) | pKd (SHANK1, Q9Y566) | pKd (IL16_1, Q14005) | pKd (DLG3_3, Q92796) | pKd (GORASP1, Q9BQQ3) | pKd (TJP3_3, O95049) | pKd (MPP2, Q14168) | pKd (Inadl_6, Q8NI35) | pKd (NOS1, P29475) | pKd (NHERF3_1, Q5T2W1) | pKd (TIAM2, Q8IVF5) | pKd (PTPN3, P26045) | Binder | also measured |
| --- | --- | --- | --- | --- | --- | --- | --- | --- | --- | --- | --- | --- | --- | --- | --- | --- | --- | --- | --- | --- | --- |
| below the threshold | 3.86 | 5.16 | below the threshold | 3.98 | below the threshold | 4.71 | below the threshold | 4.36 | 3.94 | 4.17 | 4.54 | 3.54 | 3.57 | below the threshold | 4.18 | 4.12 | 4.47 | below the threshold | 4.95 | EVEEFPETSV [TRPV3, Q8NET8] | pKd (PCLO, Q9Y6V0): below the threshold; pKd (DLG4_3, P78352): 4.2; pKd (DFNB31_2, Q9P202): 3.5; pKd (GRID2IP_1, A4D2P6): 3.7; pKd (DLG1_3, Q12959): 4.64; pKd (TJP1_3, Q07157): 3.5; pKd (MAGI2_2, Q86UL8): 3.76 |
| below the threshold | below the threshold | below the threshold | below the threshold | below the threshold | below the threshold | below the threshold | below the threshold | below the threshold | below the threshold | below the threshold | below the threshold | below the threshold | below the threshold | below the threshold | below the threshold | below the threshold | below the threshold | 4.02 | 3.88 | NHSSSPETTA [TRMT13, Q9NUP7] | pKd (PCLO, Q9Y6V0): below the threshold; pKd (DLG4_3, P78352): below the threshold; pKd (DFNB31_2, Q9P202): below the threshold; pKd (GRID2IP_1, A4D2P6): below the threshold; pKd (DLG1_3, Q12959): below the threshold; pKd (TJP1_3, Q07157): below the threshold; pKd (MAGI2_2, Q86UL8): below the threshold |
